Laboratory results: patent US20030143696A1

Target: Soluble human VCAM-1 IgG fusion protein (immobilized on coverslips) (human) (UniProt P19320)
Experiment: cell-based or functional assay

Chain of UniProt P19320 (P19320 25-698 limits assumed): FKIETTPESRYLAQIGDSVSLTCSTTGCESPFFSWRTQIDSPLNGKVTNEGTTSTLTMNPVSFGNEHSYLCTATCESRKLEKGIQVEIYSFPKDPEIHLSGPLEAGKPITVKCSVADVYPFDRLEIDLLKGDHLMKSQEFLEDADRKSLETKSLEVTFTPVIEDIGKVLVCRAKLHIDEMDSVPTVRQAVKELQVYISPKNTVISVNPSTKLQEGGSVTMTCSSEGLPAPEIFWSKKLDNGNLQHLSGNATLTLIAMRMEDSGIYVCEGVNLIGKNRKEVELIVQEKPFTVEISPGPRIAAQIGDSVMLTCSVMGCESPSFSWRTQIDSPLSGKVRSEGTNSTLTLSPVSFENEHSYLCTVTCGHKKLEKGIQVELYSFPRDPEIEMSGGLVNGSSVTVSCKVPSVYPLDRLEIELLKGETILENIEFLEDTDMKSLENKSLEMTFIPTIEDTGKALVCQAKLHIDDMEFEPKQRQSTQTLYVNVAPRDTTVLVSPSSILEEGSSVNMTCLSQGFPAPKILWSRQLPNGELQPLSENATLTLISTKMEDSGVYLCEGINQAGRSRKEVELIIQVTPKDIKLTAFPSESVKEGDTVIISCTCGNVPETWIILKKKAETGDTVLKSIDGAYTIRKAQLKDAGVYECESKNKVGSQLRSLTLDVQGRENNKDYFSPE

- memory CD4+ T cell accumulation on immobilized VCAM-1 under flow; inhibition by pretreatment with CKβ-13: 42 to 72%
Substance: VLA-4 integrin (on CD4+ naive and memory T cells) (from UniProt P13612 34-1032; P05556 21-798) (receptor)
